Experimental data from paper PMC11633186.

Biological target: VisAG5 (S. gordonii VisA region containing its 7 G5 domains, residues 138-698, C-terminal His-tag) (Streptococcus gordonii DL1)
Test: SDS-PAGE and western blot against the His-tag (denaturing); purified VisAG5 in Laemmli buffer with 2.5% betamercaptoethanol; size of the band

VisAG5 (S. gordonii VisA region containing its 7 G5 domains, residues 138-698, C-terminal His-tag) (domain or fragment)
stoichiometry N: 2
